{"source": "paper PMC9954413", "about": "(Cancers, 2023)", "binders": {"B1": {"name": "Arkadia (RNF111) RING, residues 927-994 (Ark RING, 68 aa) (domain or fragment, human, UniProt Q6ZNA4 927-994, looked up)", "chain": "KQDGEEGTEEDTEEKCTICLSILEEGEDVRRLPCMHLFHQVCVDQWLITNKKCPICRVDIEAQLPSES", "notes": "human Arkadia (RNF111), residues 927-994, 68 aa; also called wt Ark RING; source: expressed and purified as described elsewhere [31]"}, "B2": {"name": "UbcH13 (UBE2N) (enzyme, human)", "chain": "MAGLPRRIIKETQRLLAEPVPGIKAEPDESNARYFHVVIAGPQDSPFEGGTFKLELFLPEEYPMAAPKVRFMTKIYHPNVDKLGRICLDILKDKWSPALQIRTVLLSIQALLSAPNPDDPLANDVAEQWKTNEAQAIETARAWTRLYAMNNI", "notes": "human UbcH13 (UBE2N), E2 ubiquitin-conjugating enzyme; also called UbcH13 E2 enzyme"}, "B3": {"name": "Arkadia (RNF111) LONG, residues 876-994 (Ark LONG, 119 aa) (domain or fragment, human, UniProt Q6ZNA4 876-994, looked up)", "chain": "FRGNFEELIHLEERLGNVNRGASQGTIERCTYPHKYKKVTTDWFSQRKLHCKQDGEEGTEEDTEEKCTICLSILEEGEDVRRLPCMHLFHQVCVDQWLITNKKCPICRVDIEAQLPSES", "notes": "human Arkadia (RNF111), residues 876-994, 119 aa; RING domain with the non-RING elements; also called wt Ark LONG; source: expressed and purified as described elsewhere [31]"}, "B4": {"name": "Arkadia LONG R983K (domain or fragment)", "chain": "FRGNFEELIHLEERLGNVNRGASQGTIERCTYPHKYKKVTTDWFSQRKLHCKQDGEEGTEEDTEEKCTICLSILEEGEDVRRLPCMHLFHQVCVDQWLITNKKCPICKVDIEAQLPSES", "notes": "human Arkadia (RNF111), residues 876-994, with R983K; also called Ark LONG R983K; source: site-directed mutagenesis; expressed and purified as the wild type"}, "B5": {"name": "Arkadia LONG R983A (domain or fragment)", "chain": "FRGNFEELIHLEERLGNVNRGASQGTIERCTYPHKYKKVTTDWFSQRKLHCKQDGEEGTEEDTEEKCTICLSILEEGEDVRRLPCMHLFHQVCVDQWLITNKKCPICAVDIEAQLPSES", "notes": "human Arkadia (RNF111), residues 876-994, with R983A; also called Ark LONG R983A; source: site-directed mutagenesis; expressed and purified as the wild type"}}, "experiment_in_all_cases": "ITC; 1-3 mM E2 in the syringe injected (2 uL, 15-19 injections) into 100-300 uM Arkadia polypeptide in the cell; 25 °C; 50 mM KH2PO4, 50 mM K2HPO4 pH 7; single-site model", "conditions_in_all_cases": "both partners purified", "key": {"UbcH7 K96S": {"target": "T1, UbcH7 K96S (human, UniProt P68036 1-154, K96S)", "T1 construct": "human UbcH7 (UBE2L3) with K96S (KPA motif changed to SPA); also called mutant UbcH7; source: site-directed mutagenesis; expressed and purified as the wild type"}, "UbcH13 (UBE2N)": {"target": "B2"}, "UbcH7 (UBE2L3)": {"target": "T2, UbcH7 (UBE2L3) (human, UniProt P68036 1-154)", "T2 construct": "human UbcH7 (UBE2L3), E2 ubiquitin-conjugating enzyme; also called wt UbcH7; source: expressed and purified as described elsewhere [21,32]"}, "[1]": {"target": "B3"}, "[2]": {"target": "B1"}, "UbcH5B (UBE2D2)": {"target": "T3, UbcH5B (UBE2D2) (human, UniProt P62837 1-147)", "T3 construct": "His6-tag cleaved with thrombin; also called wt UbcH5B; wt E2"}}}
{"binder": "B1", "values": [{"measurement": "Kd", "setting": "UbcH7 K96S", "value": "10.2 ± 0.6", "unit": "µM"}, {"measurement": "Kd", "setting": "UbcH13 (UBE2N)", "value": "264 ± 46", "unit": "µM"}, {"measurement": "Kd", "setting": "UbcH7 (UBE2L3)", "value": "27.3 ± 2", "unit": "µM"}]}
{"binder": "B2", "values": [{"measurement": "dH", "setting": "[1]", "value": -2.3, "unit": "kcal/mol"}, {"measurement": "stoichiometry N", "setting": "[1]", "value": 0.9}, {"measurement": "dH", "setting": "[2]", "value": 3.4, "unit": "kcal/mol"}, {"measurement": "stoichiometry N", "setting": "[2]", "value": 1.1}]}
{"binder": "B3", "values": [{"measurement": "Kd", "setting": "UbcH13 (UBE2N)", "value": "51.9 ± 5", "unit": "µM"}, {"measurement": "Kd", "setting": "UbcH5B (UBE2D2)", "value": "2.7 ± 0.5", "unit": "µM"}, {"measurement": "Kd", "setting": "UbcH7 (UBE2L3)", "value": "4.3 ± 0.5", "unit": "µM"}]}
{"binder": "B4", "values": [{"measurement": "Kd", "setting": "UbcH5B (UBE2D2)", "value": "5.5 ± 0.6", "unit": "µM"}]}
{"binder": "B5", "values": [{"measurement": "Kd", "setting": "UbcH5B (UBE2D2)", "value": "8.4 ± 0.4", "unit": "µM"}]}
